Reference: paper PMC3030368

T1: Nrd1 RRM (UniProt P53617 340-410)
T1 sequence: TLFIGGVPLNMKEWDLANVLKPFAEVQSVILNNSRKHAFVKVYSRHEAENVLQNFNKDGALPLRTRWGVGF

T2: Nab3 RRM (Saccharomyces cerevisiae, UniProt P38996 321-415)
T2 sequence: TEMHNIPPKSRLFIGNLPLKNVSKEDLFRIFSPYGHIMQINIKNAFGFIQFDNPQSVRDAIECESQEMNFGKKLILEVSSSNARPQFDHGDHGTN


Experiments:
Nrd1 RRM = target: T1, Nrd1 RRM; experiment: fluorescence anisotropy
Nab3 RRM = target: T2, Nab3 RRM; experiment: fluorescence anisotropy

Row | Binder | Kd (Nrd1 RRM) | binding signal (Nab3 RRM)
1 | GUAA (ssRNA) | 66 ± 1 µM | > 6 fold lower affinity than UCUU
2 | UCUU (ssRNA) [UCUU (FA)] |  | ~10 fold weaker than snR47 (1 order of magnitude; Kd only in figure)
